Test results as given in IntAct's records for PubMed 29039417.

B1: Protein PTHB1 (Homo sapiens), Q3SYG4 (parent)
chain: MSLFKARDWWSTILGDKEEFDQGCLCLANVDNSGNGQDKIIVGSFMGYLRIFSPHPAKTGDGAQAEDLLLEVDLRDPVLQVEVGKFVSGTEMLHLAVLHSRKLCVYSVSGTLGNVEHGNQCQMKLMYEHNLQRTACNMTYGSFGGVKGRDLICIQSMDGMLMVFEQESYAFGRFLPGFLLPGPLAYSSRTDSFLTVSSCQQVESYKYQVLAFATDADKRQETEQQKLGSGKRLVVDWTLNIGEQALDICIVSFNQSASSVFVLGERNFFCLKDNGQIRFMKKLDWSPSCFLPYCSVSEGTINTLIGNHNNMLHIYQDVTLKWATQLPHIPVAVRVGCLHDLKGVIVTLSDDGHLQCSYLGTDPSLFQAPNVQSRELNYDELDVEMKELQKIIKDVNKSQGVWPMTEREDDLNVSVVVSPNFDSVSQATDVEVGTDLVPSVTVKVTLQNRVILQKAKLSVYVQPPLELTCDQFTFEFMTPDLTRTVSFSVYLKRSYTPSELEGNAVVSYSRPTDRNPDGIPRVIQCKFRLPLKLICLPGQPSKTASHKITIDTNKSPVSLLSLFPGFASQSDDDQVNVMGFHFLGGARITVLASKTSQRYRIQSEQFEDLWLITNELILRLQEYFEKQGVKDFACSFSGSIPLQEYFELIDHHFELRINGEKLEELLSERAVQFRAIQRRLLARFKDKTPAPLQHLDTLLDGTYKQVIALADAVEENQGNLFQSFTRLKSATHLVILLIALWQKLSADQVAILEAAFLPLQEDTQELGWEETVDAAISHLLKTCLSKSSKEQALNLNSQLNIPKDTSQLKKHITLLCDRLSKGGRLCLSTDAAAPQTMVMPGGCTTIPESDLEERSVEQDSTELFTNHRHLTAETPRPEVSPLQGVSE
partner: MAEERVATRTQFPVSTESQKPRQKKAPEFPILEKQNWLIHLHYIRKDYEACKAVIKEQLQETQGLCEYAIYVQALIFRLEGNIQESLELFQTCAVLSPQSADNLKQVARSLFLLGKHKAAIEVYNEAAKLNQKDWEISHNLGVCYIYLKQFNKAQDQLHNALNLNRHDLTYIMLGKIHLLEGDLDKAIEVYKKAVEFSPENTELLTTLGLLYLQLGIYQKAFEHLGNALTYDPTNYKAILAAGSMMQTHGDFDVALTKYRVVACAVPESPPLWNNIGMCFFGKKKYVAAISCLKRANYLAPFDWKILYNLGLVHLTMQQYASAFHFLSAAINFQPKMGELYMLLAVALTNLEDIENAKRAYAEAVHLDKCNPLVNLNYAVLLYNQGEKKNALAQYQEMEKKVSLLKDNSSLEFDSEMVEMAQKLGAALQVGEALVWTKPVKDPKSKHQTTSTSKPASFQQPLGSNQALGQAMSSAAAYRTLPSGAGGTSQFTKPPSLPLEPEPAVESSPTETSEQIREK

Variants of: B1
Conditions: with bbs4_human BBS4, Q96RK4

Row | effect of a mutation on the interaction | Variant
1 | with no effect | L808A
2 | with no effect | H811A
3 | with no effect | H811K
4 | with no effect | I812K
5 | with no effect | T813K
6 | with no effect | L814A
7 | with no effect | L814E
8 | with no effect | C816K
9 | with no effect | R818E
10 | disrupting interaction strength | R818T
11 | with no effect | K821A
12 | with no effect | K821E
13 | with no effect | G822K
14 | with no effect | G823E
15 | with no effect | G823K
16 | with no effect | L825A
17 | disrupting interaction strength | C826R

Row | effect of a mutation on the interaction | Variant
18 | with no effect | L827A
19 | with no effect | S828E
20 | with no effect | T829K
21 | with no effect | D830A
22 | with no effect | D830K
23 | with no effect | A831K
24 | with no effect | A832E
25 | with no effect | A832K
26 | with no effect | A833E
27 | with no effect | A833K
28 | with no effect | P834A
29 | with no effect | P834K
30 | disrupting interaction strength | Q835M
31 | with no effect | T836E
32 | with no effect | M837A
33 | disrupting interaction strength | M837I

The remaining lines, values behind:

Row | Variant | effect of a mutation on the interaction
34 | Q807K | with no effect
35 | L808E | with no effect
36 | L808K | with no effect
37 | K809A | with no effect
38 | K809E | with no effect
39 | K810A | with no effect
40 | K810E | with no effect
41 | H811E | with no effect
42 | I812A | with no effect
43 | I812E | with no effect
44 | T813A | with no effect
45 | T813E | with no effect
46 | L814K | with no effect
47 | L815A | with no effect
48 | L815E | with no effect
49 | L815K | with no effect
50 | C816A | with no effect
51 | C816E | with no effect
52 | D817A | with no effect
53 | D817E | with no effect

Row | Variant | effect of a mutation on the interaction
54 | D817K | with no effect
55 | R818A | with no effect
56 | R818K | with no effect
57 | L819A | with no effect
58 | L819E | with no effect
59 | L819K | with no effect
60 | S820A | with no effect
61 | S820E | with no effect
62 | S820K | with no effect
63 | G822A | with no effect
64 | G822E | with no effect
65 | G823A | with no effect
66 | R824A | with no effect
67 | R824E | with no effect
68 | R824K | with no effect
69 | L825E | with no effect
70 | L825K | with no effect
71 | C826A | with no effect
72 | C826E | with no effect
73 | C826K | with no effect

Row | Variant | effect of a mutation on the interaction
74 | L827E | with no effect
75 | L827K | with no effect
76 | S828A | with no effect
77 | S828K | with no effect
78 | T829A | with no effect
79 | T829E | with no effect
80 | D830E | with no effect
81 | A831E | with no effect
82 | A833S | disrupting interaction strength
83 | P834E | with no effect
84 | Q835A | with no effect
85 | Q835E | with no effect
86 | Q835K | with no effect
87 | T836A | with no effect
88 | T836K | with no effect
89 | M837E | with no effect
90 | M837K | with no effect
91 | V838A | disrupting interaction strength
